The values below come from patent publication US20220411517A1 (LEO PHARMA A S, published 2022).

Test [1] has as its target T1, human IL1RAcP domain 1 (AG-12335) (human).
T1 construct: also called domain 1 of human IL-1RAcP
T1 chain: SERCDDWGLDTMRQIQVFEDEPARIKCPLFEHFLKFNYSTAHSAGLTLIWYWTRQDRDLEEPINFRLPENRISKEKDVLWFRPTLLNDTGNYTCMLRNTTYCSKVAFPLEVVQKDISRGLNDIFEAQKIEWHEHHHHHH
Description: ELISA on directly coated human IL-1RAcP domain 1 (AG-12335), IgG titrated, S/BG. Background: An ELISA detects its analyte on a solid surface through an enzyme-linked reagent.
Description: All were assessed with direct coating of the antigen. […] An anti-His antibody served as positive control.

Test [2] addresses cynomolgus IL-1RAcP on cells (cynomolgus, UniProt A0A2K5X5J5 21-570). Description: cell-based or functional assay.
Test [3] addresses T2, human IL-1RAcP on cells (human, UniProt Q9NPH3 21-570). Kind of test: cell-based or functional assay.
The target in test [4] is T3, human IL1RAcP domain 1/2 (AG-12337) (human).
T3 construct: also called domain 1/2 of human IL-1RAcP
Description: ELISA on directly coated human IL-1RAcP domain 1/2 (AG-12337), IgG1f_AEASS titrated, S/BG.

For test [5], the target named is T4, hIL-1RAP(1-367)_F-chLys_Avi (human, biotinylated (Avi tag) in SPR and ELISA binning; unlabeled in SET).
T4 construct: also called human IL-1RAcP (AG-12210)
Kind of test: SET, ratio of KD values.

The target in test [6] is T5, cyIL-1RAP(1-367)_F-chLys_Avi (cynomolgus, biotinylated (Avi tag) in SPR; unlabeled in SET).
T5 construct: cynomolgus IL-1RAcP (21-367) is UniProt A0A2K5X5J5; also called cynomolgus IL-1RAcP (AG-12211)
Kind of test: SET, ratio of KD values.

For test [7], the target named is T4, hIL-1RAP(1-367)_F-chLys_Avi. Kind of test: solution equilibrium titration (SET), ECL read-out, IgG.
Description: (§1) MSD SulfoTAG™ NHS-Ester (Meso Scale Diagnostics) according to the manufacturer's instructions. […] Serial dilutions of unlabeled antigen were prepared, starting with a concentration at least 10 times higher than the expected KD. Wells without antigen were used to determine Bₘₐₓ values;
(§2) wells containing only assay buffer were used to determine background. […] MSD plates were coated with antigen on standard plates (30 μL per well). After washing the plate with PBS with 0.05% Tween 20, the equilibrated samples were transferred to the plates and incubated for 20 min. […] After washing the MSD plate and adding 30 μL/well MSD Read Buffer T with surfactant, electrochemiluminescence signals were detected using a MESO SECTOR S 600 (Meso Scale Diagnostics).
(§3) The data was evaluated with XLfit (IDBS) software applying customized fitting models.
The target of test [8] is T5, cyIL-1RAP(1-367)_F-chLys_Avi. Kind of test: ELISA on cynomolgus IL-1RAcP (AG-12211), IgG1f_AEASS titrated 0.007-200 nM, AP-coupled secondary antibody with AttoPhos, signal over background (S/BG).
Description: (§4) Bound antibodies were detected using respective alkaline-phosphatase (AP) coupled secondary antibodies in combination with ‘AttoPhos’ fluorescence substrate. Multiple washing steps have been performed in between individual assay steps.
For test [9], the target named is T6, mouse (AG-12212) IL-1RAcP (mouse, UniProt Q61730 21-367, limits assumed).
T6 construct: Recombinant tagged antigen; also called recombinant mouse IL-1RAcP; mouse IL-1RAP
Description: ELISA in Fc-capture mode of the IgGs, mouse IL-1RAcP (AG-12212), S/BG.
Description: as §4

Test [10] has as its target T7, human IL1RAcP domain 3 (AG-12127) (human).
T7 construct: also called domain 3 of human IL-1RAcP
T7 chain: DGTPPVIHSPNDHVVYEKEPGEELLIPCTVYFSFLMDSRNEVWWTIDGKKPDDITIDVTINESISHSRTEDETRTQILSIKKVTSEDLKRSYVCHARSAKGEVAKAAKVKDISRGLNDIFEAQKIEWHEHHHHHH
Kind of test: ELISA on directly coated human IL-1RAcP domain 3 (AG-12127), IgG titrated, S/BG.

The target of test [11] is T4, hIL-1RAP(1-367)_F-chLys_Avi. Kind of test: ELISA on human IL-1RAcP (AG-12210), IgG1f_AEASS titrated 0.007-200 nM, AP-coupled secondary antibody with AttoPhos, signal over background (S/BG).
Description: as §4
In test [12] the target is T5, cyIL-1RAP(1-367)_F-chLys_Avi. Kind of test: solution equilibrium titration (SET), ECL read-out, IgG.
Description: as §1, §2, §3
A further test deals with recombinant rat IL-1RAcP (rat, UniProt Q63621 21-367, limits assumed). Description: ELISA (FIG. 1-3 cited).
Test [13] addresses T4, hIL-1RAP(1-367)_F-chLys_Avi. Kind of test: ELISA binning; competitor: coated CAN04 FabCys-AviHis; 1.5 nM biotinylated human IL-1RAcP (AG-12210) pre-incubated with the titrated Fab; captured IL-1RAcP detected with streptavidin-AP.
Description: (§5) Epitope binning was performed using an ELISA-based competition assay. The experiments were performed using either IgG1f_AEASS or FabCys-AviHis. Antibodies were diluted to three (3) nM (for IgGs) or to 20 nM (in case of Fabs) in PBS. […] The next day 90 μL/well blocking solution (5% BSA in PBS) was added to the plate followed by an incubation at RT for at least 1 h. During incubation, the competing antibodies, including reference and negative control antibodies, were diluted in assay buffer (1xPBS, 0.5% BSA, 0.02% Tween). […] Following the incubation of the blocking solution, the ELISA plates were washed 3× with PBST. Subsequently, 20 μl/well of the prepared antibody/antigen solution was transferred to the wells and incubated for 30 min with gentle agitation. Subsequently, plates were washed 3× using PBS-T.
(§6) For detection 20 μl of a prepared streptavidin-alkaline phosphatase conjugate solution was added to the wells in order to detect bound biotinylated human IL-1RAcP. Incubation happened for 30 min with gentle agitation. Following the incubation with streptavidin-alkaline phosphatase conjugate, assay plates were washed 5× with PBS-T. Then 20 μl of AttoPhos substrate (diluted 1:5 in H₂O) was added to the wells. Plates were incubated for 10 min at RT and readout happened using a Tecan M1000 Pro Reader.
(§7) Every graph represents an individual first antibody in the FabCys-AviHis format coated on the surface. […] Subsequently, preformed antigen antibody complex was added to the respective wells with the surface coated first antibody. Detection happened via the biotin of IL-1RAcP using a streptavidin-alkaline phosphatase conjugate.
Test [14] addresses T5, cyIL-1RAP(1-367)_F-chLys_Avi. Kind of test: SPR (Biacore), biotinylated antigen captured, FabCys-AviHis as analyte, 1:1 fit; comment: Koff approaching assay limit. In general terms: SPR reads the build-up and loss of mass on a sensor chip optically.
Description: (§8) Approximately 3000 RU capture reagent was bound. This surface was used to load biotinylated antigen to generate a low-density surface for subsequent kinetic characterization (approx. 60-100 RU antigen loaded). […] After injecting the last and highest analyte concentration, a long dissociation phase was recorded. […] A blank injection of assay buffer (HBS-EP+) following the same injection pattern as described above was recorded and subtracted from specific sensorgrams during analysis (double referencing). At the end of each cycle, the sensor was regenerated with one 120 s injection of 6 M guanidine hydrochloride in 250 mM NaOH, which completely removed capture reagent with loaded biotinylated antigen and bound Fab fragments. The obtained sensorgrams were fitted to a monovalent binding model using Biacore Insight Evaluation Software. The obtained values for rate constants kₒₙ and koff were used to calculate KD.
For test [15], the target named is T4, hIL-1RAP(1-367)_F-chLys_Avi. Kind of test: SPR (Biacore), biotinylated antigen captured, FabCys-AviHis as analyte, 1:1 fit.
Description: as §8
Test [16] has as its target T2, human IL-1RAcP on cells. Kind of test: FACS on Flp-In CHO cells over-expressing human IL-1RAcP, IgG1f_AEASS titrated 1e-12 to 2e-7 M, median FL2-H over background.
Test [17] concerns the target T4, hIL-1RAP(1-367)_F-chLys_Avi. Kind of test: ELISA binning; competitor: coated Y024148 FabCys-AviHis; 1.5 nM biotinylated human IL-1RAcP (AG-12210) pre-incubated with the titrated Fab; captured IL-1RAcP detected with streptavidin-AP.
Description: as §5
For detection 20 μl of a prepared streptavidin-alkaline phosphatase conjugate solution was added to the wells in order to detect bound biotinylated human IL-1RAcP. Incubation happened for 30 min with gentle agitation. Following the incubation with streptavidin-alkaline phosphatase conjugate, assay plates were washed 5× with PBS-T. Then 20 μl of AttoPhos substrate (diluted 1:5 in H₂O) was added to the wells. Plates were incubated for 10 min at RT and readout happened using a Tecan M1000 Pro Reader. […]
Test [18] has the same target. Description: ELISA binning; competitor: coated Y024084 FabCys-AviHis (sheet title Y024084_FAB COATED); 1.5 nM biotinylated human IL-1RAcP (AG-12210) pre-incubated with the titrated Fab; captured IL-1RAcP detected with streptavidin-AP.
Description: as §5, §6, §7
Test [19] deals with T5, cyIL-1RAP(1-367)_F-chLys_Avi. Description: SPR (Biacore), biotinylated antigen captured, FabCys-AviHis as analyte, 1:1 fit.
Description: as §8
Test [20] addresses T4, hIL-1RAP(1-367)_F-chLys_Avi. Description: ELISA binning; competitor: coated Y024149 FabCys-AviHis (sheet title Y024149_FAB COATED); 1.5 nM biotinylated human IL-1RAcP (AG-12210) pre-incubated with the titrated Fab; captured IL-1RAcP detected with streptavidin-AP.
Description: as §5, §6, §7

B1: Y024148_h_IgG1f_AEASS (antibody, V domains shown)
VH: EVQLVESGGGLVQPGGSLRLSCAASGGTIGGSAVHWVRQAPGKGLVWVSRILTYSSTTQYAESVKGRFTISRDNAKNTLYLQMNSLRAEDTAVYYCARGSSEYPKFDIWGQGTLVTVSS
VL: DIQMTQSPSTLSASVGDRVTITCRASQSISSWLAWYQQKPGKAPKLLIYDASSLESGVPSRFSGSGSGTEFTLTISSLQPEDFATYYCHQLLIYPHTFGQGTKVEIKR
notes: Human IgG1f with AEASS effector-silencing residues, kappa light chain
Usually EC50 (read off the curve) stands for the midpoint of the concentration-response curve. Lower therefore signals a more potent agent. The term Kd denotes a measure of binding affinity in units of concentration. On to B1, for which the binding result in [1] is recorded as “no binding (tested: 2e-7 M)”. Further, the “IC50, IL-8 release, CyDFa stimulated with cynomolgus IL-1β” value in [2] was 0.043 nM. Besides, in the test with human IL-1RAcP on cells [3], the “IC50, IFNγ release, PBMC stimulated with IL-1β” value is 1.2 nM; the “IC50, IFNγ release, PBMC stimulated with IL-33” value came to 0.72 nM; the “IC50, IL-8 release, HDFa stimulated with IL-1α” value worked out at 1.2 nM; the “IC50, IL-8 release, HDFa stimulated with IL-36α” value was found to be 0.014 nM. In the test with human IL-1RAcP on cells [3], the “IC50, IL-8 release, HDFa stimulated with IL-36β” value was 0.039 nM; the “IC50, IL-8 release, HDFa stimulated with IL-36γ” value was 0.042 nM; the “IC50, IL-8 release, HEKa stimulated with IL-1β” value was determined as 35 nM; the “IC50, IL-8 release, HEKa stimulated with IL-36β” value worked out at 0.2 nM. Moreover, in test [4], the “EC50 (read off the curve)” value was around 6 nM. In test [5], the “fold stronger KD than reference R001031 (CAN04)” value was around 10.5 fold and the “fold stronger KD than reference R001032 (1A05)” value was around 5.5 fold. Moreover, in test [6], the “fold stronger KD than reference R001031 (CAN04)” value is around 16 fold and the “fold stronger KD than reference R001032 (1A05)” value was around 15 fold. In test [7], the dissociation constant (Kd) stood at 0.002 nM. Also, the “EC50 (read off the curve)” value in test [8] fell in the range of 0.1 to 0.2 nM. The binding result in [9] is “no binding (tested: 200 nM)”. Also, the binding result in test [10] was “no binding (tested: 2e-7 M)”. Moreover, the “EC50 (read off the curve)” value in test [11] was 0.1 to 0.2 nM. In addition, the dissociation constant (Kd) in test [12] worked out at 0.001 nM. The binding result with recombinant rat IL-1RAcP is on record as “no binding”.

B2: Y024148_h_FabCys-AviH (Fab, V domains shown)
VH: EVQLVESGGGLVQPGGSLRLSCAASGGTIGGSAVHWVRQAPGKGLVWVSRILTYSSTTQYAESVKGRFTISRDNAKNTLYLQMNSLRAEDTAVYYCARGSSEYPKFDIWGQGTLVTVSS
VL: DIQMTQSPSTLSASVGDRVTITCRASQSISSWLAWYQQKPGKAPKLLIYDASSLESGVPSRFSGSGSGTEFTLTISSLQPEDFATYYCHQLLIYPHTFGQGTKVEIKR
notes: Disulphide-linked Fab with Avi and His tags; also called Y024148 in FabCys-AviHis format
Turning to B2, the “IC50 (read off the curve)” value in test [13] is around 1 nM. Moreover, the Kd is 0.008 nM in test [14] and 0.018 nM in test [15].

B3: R001032 (1A05) (antibody, human IgG1, kappa, V domains shown)
VH: LEQSGGGAEGGLVKPGGSLELCCKASGFSLSTSYWRCWVRQAPGKGLEWIGCIYAGSGDVTYYANWVNGRFTLSRDIDQSTGCLQLNSLTAADTAMYYCASGVGFGYFNLWGQGTLVTVSS
VL: ALVMTQTPSPVSAAVGGTVTINCQASEDIYSNLAWFQQKPGQPPKLLIYDASTLASGVPSRFSGSGSGTEFTLTISGLQSDDAATYYCLGVYTHISADNAFGGGTEVVVKR
notes: Rabbit variable domains of prior art 1A05 on human IgG1 kappa constant regions with AEASS; also called P013.S.01.B.A05
For the molecule B3, the binding result in test [1] is on record as “no binding (tested: 2e-7 M)”. In [2], the “IC50, IL-8 release, CyDFa stimulated with cynomolgus IL-1β” value is 0.48 nM. In addition, in the test with human IL-1RAcP on cells [3], the “IC50, IFNγ release, PBMC stimulated with IL-1β” value was found to be 5 nM; the “IC50, IFNγ release, PBMC stimulated with IL-33” value came to 1.8 nM; the “IC50, IL-8 release, HDFa stimulated with IL-1α” value stood at 24 nM; the “IC50, IL-8 release, HDFa stimulated with IL-36α” value turned out to be 0.05 nM. In the test with human IL-1RAcP on cells [3], the “IC50, IL-8 release, HDFa stimulated with IL-36β” value was 0.15 nM; the “IC50, IL-8 release, HDFa stimulated with IL-36γ” value was determined as 0.067 nM; the “IC50, IL-8 release, HEKa stimulated with IL-1β” value was found to be 162 nM; the “IC50, IL-8 release, HEKa stimulated with IL-36β” value worked out at 0.12 nM. In addition, in test [4], the concentration for a half-maximal effect (EC50 (read off the curve)) was around 4 nM. In the test with human IL-1RAcP on cells [16], the “EC50 (read off the curve)” value was around 2 nM. Moreover, the Kd in test [7] is 0.011 nM. For the same molecule, the “EC50 (read off the curve)” value in test [8] was in the range of 0.1 to 0.2 nM. In addition, the binding result in [9] is “no binding (tested: 200 nM)”. Moreover, the binding result in [10] is reported as “no binding (tested: 2e-7 M)”. Besides, in test [11], the “EC50 (read off the curve)” value lay in the range of 0.1 to 0.2 nM. For the same molecule, the equilibrium dissociation constant (Kd) in [12] was 0.015 nM.

B4: 1A05_rbh_FabCys-AviH (Fab, V domains shown)
VH: LEQSGGGAEGGLVKPGGSLELCCKASGFSLSTSYWRCWVRQAPGKGLEWIGCIYAGSGDVTYYANWVNGRFTLSRDIDQSTGCLQLNSLTAADTAMYYCASGVGFGYFNLWGQGTLVTVSS
VL: ALVMTQTPSPVSAAVGGTVTINCQASEDIYSNLAWFQQKPGQPPKLLIYDASTLASGVPSRFSGSGSGTEFTLTISGLQSDDAATYYCLGVYTHISADNAFGGGTEVVVKR
notes: Tested as disulphide-linked Fab with Avi and His tags; also called 1A05 in FabCys-AviHis format; 1A05 (R001032)
Regarding B4, the “IC50 (read off the curve)” value in test [17], in test [13], in test [18] and in [20] was around 1 nM each time. In addition, the dissociation constant Kd in test [19] is 0.184 nM; in [15], 0.221 nM.

B5: CAN04_h_FabCys-AviH (Fab, V domains shown)
VH: QVQLVQSGAEVKKPGSSVKVSCKASGYAFSSSWMNWVRQAPGQGLEWMGRIYPGDGNTHYAQKFQGRVTLTADKSTSTAYMELSSLRSEDTAVYYCGEGYLDPMDYWGQGTLVTVSS
VL: DIQMTQSPSSLSASVGDRVTITCSASQGINNYLNWYQQKPGKAPKLLIHYTSGLHAGVPSRFSGSGSGTDYTLTISSLQPEDVATYYCQQYSILPWTFGGGTKVEIKR
notes: Tested as disulphide-linked Fab with Avi and His tags; also called CAN04 in FabCys-AviHis format; CAN04 (R001031)
Turning to B5, the “IC50 (read off the curve)” value in test [13] was around 1 nM; in test [18], around 1 nM; in test [20], around 2 nM. For the same molecule, the Kd in test [19] amounted to 0.128 nM; in [15], 0.167 nM.
